Source: the supplement of paper PMC9170038

Tested on: MS2 coat protein
Experiment: apparent KD of MS2 coat protein; designed switch direction (-1 OFF switch, 1 ON switch): -1; higher = weaker reporter binding
Outline: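 For each design, the apparent KD is the median over clusters of curves fitted to normalised cluster fluorescence. Clusters held RNA switches with common flanks, transcribed on Illumina chips by stalled E. coli RNA polymerase. These were titrated with SNAP-549-labelled MS2 coat protein, doubling from 0.7 or 1.5 nM to 3 µM, without input, with 200 uM small-molecule ligand, or with an oligonucleotide input.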

[1] = Eterna round: R95, input ligand: microRNA oligo, concentration not stated
[2] = input ligand: microRNA oligo, concentration not stated
[3] = Eterna round: R95, input ligand: FMN 200 uM
[4] = Eterna round: R95, input ligand: none

AGCAUGGUAGGAUAUACGGAGCAUUAGGGUUUGUUGUGUGGACAUGAGGAUCACCCAUGUAGAAGGGCCGUGCA [Mat - Exclusion 2 - Mod of JL - D83] (puzzle: Exclusion 2)
apparent KD of MS2 coat protein [1]: 33.5 nM

GGUGCGUAUGUGAGGAUAUGCUGGUCCUUGGGUCGGCAGAAGGCACAUGAGGAUCACCCAUGUGGUGUCGUUCC [salish99_Bmod_ex4_101] (Eterna round: R96, puzzle: Brourd's mod of Exclusion 4)
apparent KD of MS2 coat protein (input ligand: FMN 200 uM): 378 nM | apparent KD of MS2 coat protein [2]: 80.3 nM | apparent KD of MS2 coat protein (input ligand: none): 122 nM

UAUUAACAAGUAAGAUCCAACAUGAGGAUCACCCAUGUGCUCGUCUUAUAAGGUACUGUGACGAAAGUCACGGUACC [Eli 87 v1] (Eterna round: R97, puzzle: Sensor, turn-off variant 1)
apparent KD of MS2 coat protein (input ligand: FMN 200 uM): 21.2 nM | apparent KD of MS2 coat protein (input ligand: none): 21.8 nM

UAUCCACAUGAGGAUCACCCAUGUCAGGAUAUGCACUAUGGGCCAAGUGGUCCAAGGAGCAGAAGGGACGAGAG [Eternabot (L2) Solution 25] (Eterna round: R97, puzzle: Exclusion 1)
apparent KD of MS2 coat protein (input ligand: FMN 200 uM): 28.9 nM | apparent KD of MS2 coat protein (input ligand: none): 15.2 nM

UAUUAGCAAGCAAGAUCCUACAUGAGGAUCACCCAUGUGCUCGUCUUAAGCCCAGAAUUACUGGGCGCUCGUCUUAU [Winner reversed engineered 21] (Eterna round: R97, puzzle: Sensor, turn-off variant 1)
apparent KD of MS2 coat protein (input ligand: FMN 200 uM): 521 nM | apparent KD of MS2 coat protein (input ligand: none): 684 nM

AGUCCAGAUGUUAGGAUAUGCAACUAGCCAUUGUAGCAGAAGGAACAUGAGGAUCACCCAUGUACAAAGACCCG [Edgeraer] (puzzle: Brourd's mod of Exclusion 4)
apparent KD of MS2 coat protein [3]: 47.4 nM | apparent KD of MS2 coat protein [1]: 13.4 nM | apparent KD of MS2 coat protein [4]: 11.3 nM

AGGCCCGAUGGAGGAUAUGUAAGUAAUUGAGAUACUUCAUGUCACAUGAGGAUCACCCAUGUACGGCAGAAGGCCGACGGAGCC [Raanoner] (Eterna round: R96, puzzle: Exclusion NG 2)
apparent KD of MS2 coat protein (input ligand: FMN 200 uM): 24.9 nM | apparent KD of MS2 coat protein [2]: 17.3 nM | apparent KD of MS2 coat protein (input ligand: none): 20 nM

GAUAGAGAGCAGGAUAUCUUGGGUAAGUGUUGUAGAGAAGGGCUCACAUGAGGAUCACCCAUGUGGUCCUAGAU [JL Dibiri mod 08] (puzzle: Exclusion 6)
apparent KD of MS2 coat protein [3]: 33.5 nM | apparent KD of MS2 coat protein [1]: 14.5 nM | apparent KD of MS2 coat protein [4]: 11.3 nM

GCCGGAUAAGUGAGGAUAUGCCUAUGGAUACGUAGGCAGAAGGCACAUGAGGAUCACCCAUGUACCUCUCCGGC [JL-BMX4-4.25 Eli mod] (Eterna round: R97, puzzle: Brourd's mod of Exclusion 4)
apparent KD of MS2 coat protein (input ligand: FMN 200 uM): 116 nM | apparent KD of MS2 coat protein (input ligand: none): 17.5 nM

GCCUUAUCUGUCAGGAUAUACAAUAAAAUAAUUAUGUAGAAGGGACAUGAGGAUCACCCAUGUACAUUACAUUG [alecazam25] (Eterna round: R97, puzzle: Brourd's mod of Exclusion 4)
apparent KD of MS2 coat protein (input ligand: FMN 200 uM): 50 nM | apparent KD of MS2 coat protein (input ligand: none): 22 nM

CCAAGCUUAUUCAUUAACAACAUGAGGAUCACCCAUGUAUAGGCAAUUAUGUCUGGGCUCUUUAGUGCUCGUCUUAU [Sensor-V1 #24] (Eterna round: R97, puzzle: Sensor, turn-off variant 1)
apparent KD of MS2 coat protein (input ligand: FMN 200 uM): 18 nM | apparent KD of MS2 coat protein (input ligand: none): 19.8 nM

CCAUGAUAAGGAUAUUGAAGGUUCGACAUGAGGAUCACCCAUGUUAUGUUGGAAAAGGGACAAGAAGGUAUUAAUU [salish99_ex5_r4_221] (Eterna round: R97, puzzle: Exclusion 5)
apparent KD of MS2 coat protein (input ligand: FMN 200 uM): 48.2 nM | apparent KD of MS2 coat protein (input ligand: none): 45.8 nM

AGAGUGCUGCGAGGAUAUACAUGAGGAUCACCCAUGUUUUCGUGUGAGGCUUUGCCUCACACGAAGUAGAAGGCGCAGUACUCU [Mat - Exclusion NG 2 - Mod of JL - D31] (Eterna round: R96, puzzle: Exclusion NG 2)
apparent KD of MS2 coat protein (input ligand: FMN 200 uM): 7.9 nM | apparent KD of MS2 coat protein [2]: 8.79 nM | apparent KD of MS2 coat protein (input ligand: none): 12.2 nM

AAGUACCGUCACGAUAGUGAUGGUACAACAAGCAAGUGAACAUGAGGAUCACCCAUGUCCUCAAUUGCUCGUCUUAU [Sensor 3 - 71] (puzzle: Sensor v3, turn-off variant 2)
apparent KD of MS2 coat protein [3]: 28.1 nM | apparent KD of MS2 coat protein [1]: 62.1 nM | apparent KD of MS2 coat protein [4]: 28.5 nM

AAUUCACAUGAGGAUCACCCAUGUCAGGAUAUGGUUUUAUUUUUUUCUUUUCUUGAUUCCAGAAGGGACAGCUA (puzzle: Exclusion 1)
apparent KD of MS2 coat protein [1]: 70.8 nM

GAAAAGGUAGGAUAUACGAAAAAAAAGGGUACAAAAAAAACACAUGAGGAUCACCCAUGUAGAAGGACCAAAAG [salish99_ex2_r3_063] (puzzle: Exclusion 2)
apparent KD of MS2 coat protein [3]: 36.8 nM | apparent KD of MS2 coat protein [1]: 25.6 nM | apparent KD of MS2 coat protein [4]: 20.8 nM

UUUGUUUAUGUAGGAUAUGCCUGGCGUGCCUUCGCAGAAGGACAUGAGGAUCACCCAUGUAUUGCGGUCUGCGUUCAGAUCGCC [salish99_ExNG1_r4_028] (Eterna round: R96, puzzle: Exclusion NG 1)
apparent KD of MS2 coat protein (input ligand: FMN 200 uM): 22.6 nM | apparent KD of MS2 coat protein [2]: 16.1 nM | apparent KD of MS2 coat protein (input ligand: none): 21 nM

AAGUAGAGCUAAGGAUAUAUAGAGUAGUAGAAGAUAGAAGGUAGAAGUAGAAGAUGAUGAUGAAGAUGAAGUAGAUGAAGUAGA [TEST1] (Eterna round: R96, puzzle: Exclusion NG 1)
apparent KD of MS2 coat protein (input ligand: FMN 200 uM): 24.7 nM | apparent KD of MS2 coat protein [2]: 209 nM | apparent KD of MS2 coat protein (input ligand: none): 19.9 nM

UGGGUUACCCAUGGAAGUAACAUGAGGAUCACCCAUGUAGGGCAAGUUUUUUGUUCGUCAUAGGCCGUGGGUUUGGA [JR_SV3TOV1_Sub021] (puzzle: Sensor v3, turn-off variant 1)
apparent KD of MS2 coat protein [3]: 30.4 nM | apparent KD of MS2 coat protein [1]: 56.8 nM | apparent KD of MS2 coat protein [4]: 32.4 nM

UGCAUGCUAGGAUAUACGAAACAUUAGGGUUCGUCGUAUGAACAUGAGGAUCACCCAUGUAGAAGGAGCGUGCU [Mod6 of JL-ex2-2.15 mat747 mod] (puzzle: Exclusion 2)
apparent KD of MS2 coat protein [1]: 16.8 nM

CGAUAAAAGACAGGAUAUGAGGAGAGAGAGAGAUCAGAAGGGUCACAUGAGGAUCACCCAUGUGAGUUCUCGAAAUUAAAUAUU [Prohibition 50 - Jieux - Exclusion NG 1] (Eterna round: R96, puzzle: Exclusion NG 1)
apparent KD of MS2 coat protein (input ligand: FMN 200 uM): 18.8 nM | apparent KD of MS2 coat protein [2]: 14.2 nM | apparent KD of MS2 coat protein (input ligand: none): 18.8 nM

UGCUGACGAGGAUAUACAUGAGGAUCACCCAUGUAAGAUCAGCGACGAUAGUCGCAAUGUAGAAGGCGUCAGCA [E3/10-A3] (Eterna round: R97, puzzle: Exclusion 3)
apparent KD of MS2 coat protein (input ligand: FMN 200 uM): 228 nM | apparent KD of MS2 coat protein (input ligand: none): 28.5 nM

GUAAACGUAUAGGAUAUUUCAGGUCAAAGCUGCAAAGAAGGAUGCACAUGAGGAUCACCCAUGUGGUCAAUAAA [Mod of Quesina 24 - Jieux - Exclusion 6] (Eterna round: R97, puzzle: Exclusion 6)
apparent KD of MS2 coat protein (input ligand: FMN 200 uM): 25.7 nM | apparent KD of MS2 coat protein (input ligand: none): 22.2 nM

ACGUGAUAUCUGUCGGUGGACAUGAGGAUCACCCAUGUGAGCUUUUUGCUCGUCUUGUAACCCGGUGACAGACCUUC [Encetia] (puzzle: Sensor v3, turn-off variant 1)
apparent KD of MS2 coat protein [3]: 22.4 nM | apparent KD of MS2 coat protein [1]: 213 nM | apparent KD of MS2 coat protein [4]: 22.3 nM

AUAAUAAAACAUGAGGAUCACCCAUGUGGGUCGUUCUACUGGCAGGAUAUCGCCAGACAAUAAAACGAGAAGGGCCAGUUAAUA [Leanerrean] (Eterna round: R96, puzzle: Exclusion NG 3)
apparent KD of MS2 coat protein (input ligand: FMN 200 uM): 168 nM | apparent KD of MS2 coat protein [2]: 92.6 nM | apparent KD of MS2 coat protein (input ligand: none): 86 nM

GUAUCGUGAGGAUAUCAUGAUUGACUUAGUUUAUGUCAGCGUGAGAAGGCACAUGAGGAUCACCCAUGUGAUUA [Ex4 - 3 - 7] (puzzle: Exclusion 4)
apparent KD of MS2 coat protein [1]: 23.1 nM

AUUGUAGUUGUGAGGAUAUCGUAGAUUUAUUGAAACGAGAAGGCACAUGAGGAUCACCCAUGUAAGUUGUAGGU [JR_BMOE4_Sub054] (puzzle: Brourd's mod of Exclusion 4)
apparent KD of MS2 coat protein [1]: 54 nM

ACAAGCUUAAAGGUGAAUAACAUGAGGAUCACCCAUGUUCGUCUUAUAAAAAUAAAAAUAAAAAAUAAAAAAUAAAA [Sensor V2: 62] (Eterna round: R96, puzzle: Sensor v2, turn-off variant)
apparent KD of MS2 coat protein (input ligand: FMN 200 uM): 25.6 nM | apparent KD of MS2 coat protein [2]: 87.2 nM | apparent KD of MS2 coat protein (input ligand: none): 27.9 nM

UACAUGAGGAUCACCCAUGUUUUGUCGUGUAUGGUACCCGUUUAGGAUAUCGUGUUAUUGGACCGCGAGAAGGAGAGUAUCAAU [Excl-NG3-LRO04] (Eterna round: R96, puzzle: Exclusion NG 3)
apparent KD of MS2 coat protein (input ligand: FMN 200 uM): 26.5 nM | apparent KD of MS2 coat protein [2]: 22.8 nM | apparent KD of MS2 coat protein (input ligand: none): 29.4 nM

GGUCGUAGACAGGAUAUGCGGCAAAUAAAUAAAGCAGAAGGGUCUACUUGAGGAUCACCCAAGUGGGCGGUUAA [jl-ex6-4.18 ViennaUCT mod] (Eterna round: R97, puzzle: Exclusion 6)
apparent KD of MS2 coat protein (input ligand: FMN 200 uM): 103 nM | apparent KD of MS2 coat protein (input ligand: none): 17.7 nM

UGAUGUACUCAGGAUAUGAGUAGCUUUCGAGCAUCAGAAGGGAGUACAUGAGGAUCACCCAUGUUGGCCAUGUU [EX6 C.9] (Eterna round: R97, puzzle: Exclusion 6)
apparent KD of MS2 coat protein (input ligand: FMN 200 uM): 81.2 nM | apparent KD of MS2 coat protein (input ligand: none): 683 nM

GAAAACGUAGGAUAUUAAUACUUAGACAUGAGGAUCACCCAUGUUUGGUGGGUCGGAGAAUGAGAAGGGCGAUGAA [EX5 #13] (Eterna round: R97, puzzle: Exclusion 5)
apparent KD of MS2 coat protein (input ligand: FMN 200 uM): 107 nM | apparent KD of MS2 coat protein (input ligand: none): 153 nM

GAUUAUGCGAGCUUUAGGGACAUGAGGAUCACCCAUGUUCGUCUUAUUAGUCUAGAUGCACUGACAUACCUAAAUCU [JMF 78] (puzzle: Sensor v3, turn-off variant 1)
apparent KD of MS2 coat protein [3]: 15 nM | apparent KD of MS2 coat protein [1]: 19.6 nM | apparent KD of MS2 coat protein [4]: 14.4 nM

UAUAUAUAGUAAGGAUAUAUAUUUUUUUUAUAAAUAGAAGGUACAGACAUGAGGAUCACCCAUGUUAUAAUAUGGACAUGUGGA [JMF's Solution 2] (Eterna round: R96, puzzle: Exclusion NG 1)
apparent KD of MS2 coat protein [2]: 77.4 nM
